Data on two molecules can be found in PMC9858521 (Science Advances, 2023).

Assay [1] concerns the target T1, FLAG-γ1-COP (N-terminal FLAG-tagged human γ1-COP) (human, UniProt Q9Y678 1-874).
T1 sequence (looked up): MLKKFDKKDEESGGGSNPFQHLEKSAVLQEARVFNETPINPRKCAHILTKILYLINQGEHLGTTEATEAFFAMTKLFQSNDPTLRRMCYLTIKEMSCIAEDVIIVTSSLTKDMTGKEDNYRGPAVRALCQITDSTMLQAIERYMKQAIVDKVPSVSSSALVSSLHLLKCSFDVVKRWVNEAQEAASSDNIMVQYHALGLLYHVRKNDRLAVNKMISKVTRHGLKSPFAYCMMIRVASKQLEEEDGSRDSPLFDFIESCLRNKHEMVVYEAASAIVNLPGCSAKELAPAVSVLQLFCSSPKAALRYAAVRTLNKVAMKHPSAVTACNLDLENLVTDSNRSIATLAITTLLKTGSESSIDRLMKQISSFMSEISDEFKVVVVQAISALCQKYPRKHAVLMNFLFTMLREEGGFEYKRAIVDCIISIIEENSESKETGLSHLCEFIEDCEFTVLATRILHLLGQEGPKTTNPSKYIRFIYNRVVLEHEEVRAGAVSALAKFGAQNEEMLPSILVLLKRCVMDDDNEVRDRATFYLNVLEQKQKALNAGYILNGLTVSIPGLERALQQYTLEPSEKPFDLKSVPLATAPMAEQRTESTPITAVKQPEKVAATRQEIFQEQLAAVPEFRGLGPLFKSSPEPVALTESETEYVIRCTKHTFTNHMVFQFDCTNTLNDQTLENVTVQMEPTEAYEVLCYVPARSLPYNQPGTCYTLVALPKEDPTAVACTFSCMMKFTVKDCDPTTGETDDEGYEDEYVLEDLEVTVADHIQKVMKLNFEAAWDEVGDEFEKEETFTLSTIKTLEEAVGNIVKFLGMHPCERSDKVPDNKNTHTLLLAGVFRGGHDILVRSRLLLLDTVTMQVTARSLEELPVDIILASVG
The assay is described as follows: pull-down.

In assay [2] the target is T1, FLAG-γ1-COP (N-terminal FLAG-tagged …). The assay is described as follows: co-IP.

Ends that are not written are not given here. * marks the point of attachment. Biotin = O=C1N[C@H]2[C@H](CS[C@H]2CCCCC(=O)*)N1

B1: biotin-tagged WT HPV16 L2 peptide (residues T299 to L312) (peptide)
peptide: Biotin-TGIRYSRIGNKQTL
Regarding B1, the binding result in assay [1] is on record as “binds”.

B2: HA-(Δ1–67) L2-3xFLAG (domain or fragment, HPV16, UniProt P03107 68-473, looked up)
chain: GRTGYIPLGTRPPTATDTLAPVRPPLTVDPVGPSDPSIVSLVEETSFIDAGAPTSVPSIPPDVSGFSITTSTDTTPAILDINNTVTTVTTHNNPTFTDPSVLQPPTPAETGGHFTLSSSTISTHNYEEIPMDTFIVSTNPNTVTSSTPIPGSRPVARLGLYSRTTQQVKVVDPAFVTTPTKLITYDNPAYEGIDVDNTLYFSSNDNSINIAPDPDFLDIVALHRPALTSRRTGIRYSRIGNKQTLRTRSGKSIGAKVHYYYDLSTIDPAEEIELQTITPSTYTTTSHAASPTSINNGLYDIYADDFITDTSTTPVPSVPSTSLSGYIPANTTIPFGGAYNIPLVSGPDIPINITDQAPSLIPIVPGSPQYTIIADAGDFYLHPSYYMLRKRRKRLPYFFSDVSLAA
On to B2, for which the binding result in assay [2] is “binds”.
